One experiment deals with HDAC6 (UniProt Q9UBN7). The experiment in a line: Strep bait enrichment from lysate, Western blot. The following applies: reference: unmodified Strep-NEDD8; sites S65.
A further experiment concerns the target Parkin (UniProt O60260). Nature of the experiment: Strep-Tactin pull-down, anti-Parkin blot. The following applies: reference: unmodified Strep-NEDD8; sites S65.

For the substance “NEDD8 1-76 (from UniProt Q15843) Strep-pNEDD8 (pS65)”, the “binding against the reference” value with HDAC6 and with Parkin was “stronger” throughout.

The values above are taken from article PMC9020517.
